The record followed here is patent publication US20240209076A1.

pKd: −log10 of the molar value.

Assay [1] has as its target VEGF-A165 (UniProt P15692). Kind of assay: Biacore T200 SPR at 37 C, binder captured on Protein A chip, VEGF-A165 0.19 to 15 nM in five steps, 60 min dissociation, 1:1 Langmuir fit. In general terms: Surface plasmon resonance follows binding to a sensor surface in real time, without labels.
The target of assay [2] is VEGF-A165 (UniProt P15692). The assay can be described thus: SPR (Biacore T200), 37 C, binder captured on a Protein A chip, VEGF-A165 0.19 to 15 nM flowed over, 1:1 Langmuir fit.
Sequence of VEGF-A165 (P15692 other isoform, or with tags, fused parts or gaps limits assumed): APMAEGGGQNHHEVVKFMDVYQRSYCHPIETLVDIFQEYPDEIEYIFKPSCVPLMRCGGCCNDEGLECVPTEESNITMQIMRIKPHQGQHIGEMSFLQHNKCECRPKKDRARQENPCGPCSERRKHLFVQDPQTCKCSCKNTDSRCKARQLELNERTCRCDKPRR
Assay [3] has as its target VEGF-A165 (UniProt P15692). The assay can be described thus: Biacore SPR at 37 C, binder captured on Protein A chip, VEGF-A165 0.19 to 15 nM in five steps, 1:1 Langmuir fit.
The target in assay [4] is VEGF (UniProt P15692). The assay can be described thus: cell-based or functional assay.
Sequence of VEGF (P15692 other isoform, or with tags, fused parts or gaps limits assumed): as above

Sequence of Eylea (Fc fusion) (chain): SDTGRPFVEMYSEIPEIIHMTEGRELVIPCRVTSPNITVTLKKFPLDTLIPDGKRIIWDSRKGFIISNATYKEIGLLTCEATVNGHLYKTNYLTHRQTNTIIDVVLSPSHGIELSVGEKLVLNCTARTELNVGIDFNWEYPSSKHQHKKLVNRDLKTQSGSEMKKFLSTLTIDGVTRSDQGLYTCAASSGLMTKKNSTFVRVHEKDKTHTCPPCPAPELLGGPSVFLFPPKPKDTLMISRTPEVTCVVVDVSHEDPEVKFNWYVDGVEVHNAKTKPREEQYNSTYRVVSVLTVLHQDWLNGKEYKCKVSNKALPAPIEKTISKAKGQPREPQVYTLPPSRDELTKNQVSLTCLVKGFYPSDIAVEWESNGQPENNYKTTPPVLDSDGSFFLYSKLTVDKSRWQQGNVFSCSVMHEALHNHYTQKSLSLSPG

For the substance Eylea (Fc fusion), the negative-log Kd (pKd) (in general, −log10 of the Kd, conventionally taken in molar units) is 11.27 in assay [1], 11.21 in assay [2] and 10.80 in assay [3]. Besides, the cell based VEGF stimulated VEGFR reporter assay, average IC50 in assay [4] amounted to 0.35 nM.
